In the supplement of paper PMC9170038:

The sequences below were run on K4 kissing-loop RNA reporter (assay: apparent KD of K4 kissing-loop reporter; higher = weaker reporter binding). Settings: Eterna round: R107; input ligand: arginine 13.2 mM.
Method: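 RNA-MaP round R107: designed RNA switches with theophylline, tryptophan, arginine or FMN aptamers are transcribed on-chip within common flanks. They are titrated with a labelled K4 kissing-loop RNA reporter in RNA-MaP buffer (100 mM Tris pH 7.5, 80 mM KCl, 4 mM MgCl2), without ligand or with the indicated ligand. Median apparent KD per design.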
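Note: bound reporter read as fluorescence of individual clusters on recovered sequencing chips by microscopy, with normalized cluster intensities fitted with a binding model.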

Point of comparison: “AGCGAGUGAUGUUCGCUGAUCAUGUGAAGUUAGGAUAUAUACUUGCAUAGAAGGAACUAUUACAUGACAUUAGAGGCAGUAGUUC [FMN A SS t7b]”, “apparent KD of K4 kissing-loop reporter” value 173 nM. Against it:
- UCUGGAGGAUAUGAUACCAGCAGUGAGAGAGAGGAAGUAUAGUGAUGUUAUAUGAGAGAAUGCCCUUGGCAGCGUGUGUAGUGGG [SSTheophylB.L] — within 1.5-fold, 137 nM
- ACACGGAGAGGCAUAACGUGCAUCUUCAGCGAGGAUAUCCAUUACAGGAGAAGGCGCUCCGGAGUGAUGUUCCGGCAAAAGAUAC [Quatatte] — within 1.5-fold, 151 nM
- GCGCGCGUUUUAGAUACCAGCCAGUGAUGUUGGCGAGGAUUCUGGAGCGUAGUGUCAAAUGGCCCUUGGCAGCUAACACGCGGCU [Zabea] — 1.6-fold lower, 108 nM
- GCAACAUUGGUAGGAUAUCAUUCUGAGUGAUGUUCAGGGUUCAGCUAACGAAAGUUAGUUGUACCAUGAGAAGGACUAAUGUUGC [Omei KL FMN B SS A v3] — 4.4-fold higher, 766 nM
- AAAAUAAGCCAGUGAUGUUGGUAUACAGAUACCAGCGACGAAAGUCGCCCUUGGCAGCUGUGGACGUACAAAAUAAGUACGUCCU — 1.6-fold higher, 278 nM
- UGAUAGCCAGUGAUGUUGGCAUAUACUGAAGGAGCGCGUGAAAACGCAGGUAGGUCGCAGUUCCUUGCCAAUUGAUCGAAAGAUC [#08 K4 Arginine A Exclusion] — within 1.5-fold, 200 nM
- GCCGUAGAUGGAAGGAGCGUGAAUGGCCUCUAUCCAAAGUGAUGUUUUGUUGAAGACUGUUCACAGGUAGGUCGCCAUCUACGGC — within 1.5-fold, 125 nM
- UUCGGAUAAGUCCUUCCGAAGAAGCCGGAAGGAGCGACUCAAUAGUCAGGUAGGUCGCCGGCAAGCGUAGUGAUGUUAUGCUCAC [Arg A SS t6] — 3.5-fold higher, 598 nM
- UUGUUUGGUUGAGAGGUUGGGCGAGAUGAUACCAGUAUAGAAGAGUACCCUUGGCAGCAUAGGAGAGAUAUAGUGAUGUUGUAUG [SSTheophA.T] — 2.1-fold higher, 355 nM
- UUACUGAGUGAUGUUUGGAAAUAUCCUAGGCAGGAUAUGCGGAAACGCAGAAGGGCCACCUUCUAGUGAAGGAAACUUCGCUAUU [Ex FMN A 4] — 1.6-fold higher, 284 nM
- UUUUUCGCGUUUGAUACCAGCAGAGUUGUUCGUGUCUGGAGCGUGAGUGAUGUUCAUGUCUGCCCUUGGCAGCAAACGGGAGAAG [KL-XTheo-B14] — 1.5-fold lower, 113 nM
- GAGAUAGAGGCGGCCGCCACUAGUGAUGUUAGUGAUGUUAGAAAGAGAAUAGAACAGGGAUUAGAUAGGACCGGGCCAGAUGGAG [vvhmullin] — 3.8-fold lower, 46 nM
- AAAUAGAUCAGUCACCCAGUGAUGUUGGAAGGAGCGUGCGAAAGCACAGGUAGGUCGCCAGAAUAAAAUUGGCUGAUCAAAAUAA — 1.9-fold higher, 337 nM
- AUUUUCAAUUUAUUAUAUAACUUUUCAGAAGGAGCGUGGAAGUUCACAGGUAGGUCGCUGAAUAUAGGACUAGUGAUGUUAGUUA [JR_Nu_SSArginiA_Sub023] — within 1.5-fold, 247 nM
- AGGCCGAGCCAAGGAUAUUGUCAGAGUGAUGUUCGCCAAUACUCCAGCCGCGCCUCAUCAGCUGAGCAAGAAGGUGGUCCUCUCA [theeternabot_exclusion_KL_FMN_B_47] — within 1.5-fold, 199 nM
- GAGGUACAGCUGGCCGUCGAAUUGUCCGAUACCAGACACUCUCUAGUCCCUUGGCAGCGGUGGUAAGUGAUGUUUACAGGCGCCG [theeternabot_exclusion_KL_Theo_A_3] — 1.7-fold lower, 104 nM
- CUUGGAAAGACGGCCGCCACUGGCCAGUGAUGUUGGCCCACCAGGUAAGCCAAGAAGCUUGACGUCAGGACCGGGUCCUAGGAAU [Exclusion TRyptophan B GF 23] — 2.6-fold higher, 449 nM
- GCCGUACGCAUGGAUACCAGUCAAGAUCAGUGAUGUUGAUCUUUUAUAGAGCCUUCAUUAGACCCUUGGCAGCCAUGCGUACGGC — within 1.5-fold, 237 nM
- CGGCGUGCCUUAUCCUCAUCUCUGACUCAACGAGGACCGGUACGGCCGCCACUCGGAAGAGGCAGUGAUGUUGCCUACGCCGGUG [Oronat] — 2.1-fold lower, 82.7 nM
- UGAUACCAGACGGCCGCCACUCCCGUAAGUCAAAGACUUACGAAGAGAGUUGUCCAGUGAUGUUGGAGGACCGGGUCUGGUAUCU [FiskerMod 13 - Jieux - Exclusion - Tryptophan B] — within 1.5-fold, 208 nM
- GCGCGUCAUGUCAGCGGUGACACUGUCGAUACCAGCGCCGCAAGGCGCCCUUGGCAGCGACGCGCUGGAGUGAUGUUCCAGCGUG [#2 Exclusion - Theophylline A Attempt #14 (HarryS)] — within 1.5-fold, 148 nM
- GCCGUACGCAUGGAUACCAGCUACUAGAGUGAUGUUCUAUGGCCCUGCCAAUGGAGCUGUAGCCCUUGGCAGCCAUGCGUACGGC — within 1.5-fold, 125 nM
- AUGUAUGAAUUAGGAUAUCGUGAGCCUUGCAUAUAUAUGAUAAAUGGAUAUGUCGUAGUGAUGUUACGAGAAGGAGUGUGGAGUA [KL-XFMN-B4] — 2.8-fold lower, 61.6 nM
- ACGAAGGAUGGAAGGAGCGCUCGUCAGUCCUGCGAGUGAUGUUCGUGGGUAAAUAUUCGCGAGCAGGUAGGUCGCCAUCUUGAGC [Soregeor] — 1.5-fold lower, 115 nM
- AUACGUUUAAGUGAUACCAGACAUGUGAGUGAUGUUUACAAAUAAAUUAAAUUUUUAGCUGUCCCUUGGCAGCACAGUUUAUUUA [JR_ExcTheophyB_Sub002] — 3-fold higher, 517 nM
- UCCUGCAAUCUGCCACGAAAGUGGAUUGAUACCAGAGUCGAAAGACUCCCUUGGCAGCGAGUGAUGUUCGACGCAGGUAAAUAAA [MatMod 5 - Jieux - Exclusion - Theophylline A] — within 1.5-fold, 224 nM
- CAUAGUCACUGUGAUACCAGCCCGACUCUUGGCGUCUGCGGUCAAAGCCCAGUGAUGUUGGGCCCUUGGCAGCAUGGCGGCAACA [Xelexebi] — 1.5-fold lower, 114 nM
- GUGCGCGCGGCGGCCGCCACUCGCAUGAGAGUGAUGUUCUCGGGACUGACGCAAGUCAGUCAUGUGAGGACCGGGCCGGGCUGCG [#2 Same State - Tryptophan B Attempt #12 (HarryS)] — 9.5-fold higher, 1640 nM
- AGGGACGAUAGCGAUACCAGAGGUCGCAAAUUCGCGCCGUUUUUUAGGAAGUGAUGUUUUCUCCCUUGGCAGCGCCCUUAGAGUU [theeternabot_exclusion_KL_Theo_B_47] — 2.5-fold higher, 435 nM
- CGCGCGCGCGCGCGCGCGCGCGAAAAUGAUACCAGUAUAUAAGAAUACCCUUGGCAGCAUAAGAAAGAUAUAGUGAUGUUGUAUA [SSTheophA.A] — 2.3-fold lower, 76.5 nM
- CGGAGUGAUGUUCCGUUAAUUCCUUAGUUACGAGGACCGGUACGGCCGCCACUCGAUUUUAGUUUUAUUUAUUGUUUGGAAAUUU [JR_SSTryptoA_Sub008] — 1.5-fold higher, 268 nM
- UAGUCCUAGUGAUGGUCAUCACGUGGUGGGCGAGGACCGGUACGGCCGCCACUCGACUUUGCAGUGAUGUUGCAAACCGGACAAU [Exclusion - Tryptophan A (Freestyle 19)] — 1.9-fold higher, 322 nM

Same assay, conditions: Eterna round: R107; input ligand: none

Point of comparison: “UUCGGAUAAGUCCUUCCGAAGAAGCCGGAAGGAGCGACUCAAUAGUCAGGUAGGUCGCCGGCAAGCGUAGUGAUGUUAUGCUCAC [Arg A SS t6]”, “apparent KD of K4 kissing-loop reporter” value 882 nM. Against it:
- AUGGUGGAUCAGUGAUGUUGGUGGAGUAGGUAGGAUAUGAGUGAUGUUAGAAGGAUCGGAGUGAUGUUCCAGGUGGUUGUGUUGU [KL-SSFMN-A3] — 1.6-fold lower, 548 nM
- GCCGUAGAUUGAAGGAGCGCCUUCUUACCAAGAGUGAUGUUCUUAGGUACCAUGUUCAGUAGGCAGGUAGGUCGCAAUCUACGGC — 1.8-fold lower, 484 nM
- AAGAAUAAUCUUGCAGUGAUGUUGCAAGAUACCAGCAUCGAAAGAUGCCCUUGGCAGCUUGAAACUGCAAGAAUCAAGCUGAAUA [Design1] — 6.3-fold lower, 140 nM
- GGUAGCAUGGCGGCCGCCACUAAGAGAGUGAUGUUCUCUUAGUUUUUUGAUGUGUUAUCAAUUCUUAGGACCGGGCCAUGCUACC — 9-fold lower, 98.2 nM
- ACUGAAAGAUCUGAUACCAGACUUUUUGUAUUUAUUAAAACUAGUGAUGUUAGUUUAUCAGUCCCUUGGCAGCAGUUACUACAGA [JR_Nu_ExcTheophyB_Sub024] — 8.4-fold lower, 105 nM
- ACGACGGCAGCUCAGUGAUGUUGGGCAUUACGAGGACCGGUACGGCCGCCACUCGCUGCUUUGAUCCGUGGAUGAACCUCAGCAU [theeternabot_sameState_KL_Trp_A_13] — within 1.5-fold, 601 nM
- GGGAGCAAAGCUCCCGGAUGCUAUAGUCAGGAGGAUAUCUGGAAACAGAGAAGGCCUAAGCCAGUGAUGUUGGCUAUAAGCAUCC — within 1.5-fold, 757 nM
- GUAGACAGACUGCAAGCCUAGUCUACAGACUAGGAUAUCAGGAAACUGAGAAGGAGUCUACUUGCAGUGAUGUUGCAAGAAUAAU [[F]''-[K]'-[F]'-[F1]-[F2]-[K1]-[K2]_Design4] — 7.3-fold lower, 121 nM
- UCUAACGUUGAGGCGGCAGCGGGCCCAUCUAAGGAUAUCGGUUUACCGAGAAGGUAGUUGGACGAGAGUGAUGUUCUAUUGAGAG [theeternabot_sameState_KL_FMN_A_18] — 3.5-fold lower, 254 nM
- CAUAGGAAACUAUGUUUCUCUCUUACUGAAGGAGCGCGUGAAAACGCAGGUAGGUCGCAGAUUUUGAGAGUGAUGUUCUCAAUAA [Ex Arginine A K4 18] — 6.3-fold lower, 139 nM
- UGACAUUGCUCAGAUACCAGACUUGAGGAACACCCAAGUGCCAAACGUACAAUAAUAAAAGUCCCUUGGCAGCUGAGCAAUGUCU [TheoBX 14] — 11-fold lower, 82.1 nM
- UCUGGAGGAUAUGAUACCAGCAGUGAGAGAGAGGAAGUAUAGUGAUGUUAUAUGAGAGAAUGCCCUUGGCAGCGUGUGUAGUGGG [SSTheophylB.L] — 6.5-fold lower, 135 nM
- ACACGGAGAGGCAUAACGUGCAUCUUCAGCGAGGAUAUCCAUUACAGGAGAAGGCGCUCCGGAGUGAUGUUCCGGCAAAAGAUAC [Quatatte] — 8.6-fold lower, 102 nM
- GCGCGCGUUUUAGAUACCAGCCAGUGAUGUUGGCGAGGAUUCUGGAGCGUAGUGUCAAAUGGCCCUUGGCAGCUAACACGCGGCU [Zabea] — 7.4-fold lower, 119 nM
- GCAACAUUGGUAGGAUAUCAUUCUGAGUGAUGUUCAGGGUUCAGCUAACGAAAGUUAGUUGUACCAUGAGAAGGACUAAUGUUGC [Omei KL FMN B SS A v3] — within 1.5-fold, 1220 nM
- AAAAUAAGCCAGUGAUGUUGGUAUACAGAUACCAGCGACGAAAGUCGCCCUUGGCAGCUGUGGACGUACAAAAUAAGUACGUCCU — 2.1-fold lower, 417 nM
- UGAUAGCCAGUGAUGUUGGCAUAUACUGAAGGAGCGCGUGAAAACGCAGGUAGGUCGCAGUUCCUUGCCAAUUGAUCGAAAGAUC [#08 K4 Arginine A Exclusion] — 4.8-fold lower, 183 nM
- GCCGUAGAUGGAAGGAGCGUGAAUGGCCUCUAUCCAAAGUGAUGUUUUGUUGAAGACUGUUCACAGGUAGGUCGCCAUCUACGGC — 6.5-fold lower, 135 nM
- UUGUUUGGUUGAGAGGUUGGGCGAGAUGAUACCAGUAUAGAAGAGUACCCUUGGCAGCAUAGGAGAGAUAUAGUGAUGUUGUAUG [SSTheophA.T] — 1.8-fold lower, 480 nM
- UUACUGAGUGAUGUUUGGAAAUAUCCUAGGCAGGAUAUGCGGAAACGCAGAAGGGCCACCUUCUAGUGAAGGAAACUUCGCUAUU [Ex FMN A 4] — 2.1-fold lower, 423 nM
- UUUUUCGCGUUUGAUACCAGCAGAGUUGUUCGUGUCUGGAGCGUGAGUGAUGUUCAUGUCUGCCCUUGGCAGCAAACGGGAGAAG [KL-XTheo-B14] — 7.2-fold lower, 123 nM
